This is an account of results in US7910708 (Novartis, dated 2011).

Sequences and labels used below:
B1: 01951/G12 antibody (human IgG1, kappa) (antibody, V domains shown)
VH: EVQLVESGGGVVQPGRSLRLSCAASGFTFSSYGMHWVRQAPGKGLEWVAIIWYDGSNKYYADSVKGRFTISRDNSKNTLYLQMNSLRAEDTAVYYCARLWFGDLDAFDIWGQGTMVTVSS
VL: EIVLTQSPATLSLSPGERAILSCRAGQSVSSYLVWYQQKPGQAPRLLIYDASNRATGIPARFSGSGSGTDFTLTISSLEPEDFAVYYCQQRSSWPPVYTFGQGTKLEIKR
B2: 01471/G6 antibody (human IgG1, kappa) (antibody, V domains shown)
VH: EVQLVESGGGVVQPGRSLRLSCAASGFTFSNYGMHWVRQAPGKGLEWVAIIWYDGSNKYYADSVKGRFTISRDNSKNTLYLQMNSLRAEDTAVYYCVKGSGDIPFDYWGQGTLVT
VL: EIVLTQSPATLSSSPGERATLSCRASQSVSSYLAWYQQKPGQAPRLLIYDASNRATGIPARFSGSGSGTDFTLTISSLEPEDFAVYYCHQRSHWPPIFTFGPGT
B3: 01771/E10 antibody (human IgG1, kappa) (antibody, V domains shown)
VH: QVQLVQSGGGVVQPGRSLRLSCAASGFTFSSYGMHWVRQAPGKGLEWVAIIWYDGSNKYYADSVKGRFTISRDNSKNTLYLQMNSLRAEDTAVYYCARLWFGDLDAFDIWGQGTMVT
VL: EIVLTQSPATLSLSPGERATLSCRASQSVSSYLAWYQQKPGQAPRLLIYDASNRATGIPARFSGSGSGTDFTLTISSLEPEDFAVYYCHQRSSWPPIFTFGPGT
B4: 03161/H2 antibody (human IgG1, kappa) (antibody, V domains shown)
VH: EVQLVESGGGVVQPGRSLRLSCAASGFTFSNYGMHWVRQAPGKGLEWVAIIWYDGSNKYYADSVKGRFTISRDNSKNTLYLQMNSLRAEDTAVYYCVKGSGDIPFDYWGQGTLVT
VL: EIVLTQSPATLSSSPGERATLSCRASQSVSSYLAWYQQKPGQAPRLLIYDASNRATGTPARFSGSGSGTDFTLTISSLEPEDFAVYYCHQRSHWPPIFTFGPGT
B5: 01471/G6 Fab (Fab, V domains shown)
VH: EVQLVESGGGVVQPGRSLRLSCAASGFTFSNYGMHWVRQAPGKGLEWVAIIWYDGSNKYYADSVKGRFTISRDNSKNTLYLQMNSLRAEDTAVYYCVKGSGDIPFDYWGQGTLVT
VL: EIVLTQSPATLSSSPGERATLSCRASQSVSSYLAWYQQKPGQAPRLLIYDASNRATGIPARFSGSGSGTDFTLTISSLEPEDFAVYYCHQRSHWPPIFTFGPGT
notes: Soluble human Fab expressed in E. coli, kappa light chain (captured via anti-human L-kappa antibody); the printed variable regions stop short of the end of framework 4
B6: 01951/G12 Fab (Fab, V domains shown)
VH: EVQLVESGGGVVQPGRSLRLSCAASGFTFSSYGMHWVRQAPGKGLEWVAIIWYDGSNKYYADSVKGRFTISRDNSKNTLYLQMNSLRAEDTAVYYCARLWFGDLDAFDIWGQGTMVT
VL: EIVLTQSPATLSLSPGERAILSCRAGQSVSSYLVWYQQKPGQAPRLLIYDASNRATGIPARFSGSGSGTDFTLTISSLEPEDFAVYYCQQRSSWPPVYTFGQGT
notes: Soluble human Fab expressed in E. coli, kappa light chain
B7: 03161/H2 Fab (Fab, V domains shown)
VH: EVQLVESGGGVVQPGRSLRLSCAASGFTFSNYGMHWVRQAPGKGLEWVAIIWYDGSNKYYADSVKGRFTISRDNSKNTLYLQMNSLRAEDTAVYYCVKGSGDIPFDYWGQGTLVT
VL: EIVLTQSPATLSSSPGERATLSCRASQSVSSYLAWYQQKPGQAPRLLIYDASNRATGTPARFSGSGSGTDFTLTISSLEPEDFAVYYCHQRSHWPPIFTFGPGT
notes: as for B6
B8: 01771/E10 Fab (Fab, V domains shown)
VH: QVQLVQSGGGVVQPGRSLRLSCAASGFTFSSYGMHWVRQAPGKGLEWVAIIWYDGSNKYYADSVKGRFTISRDNSKNTLYLQMNSLRAEDTAVYYCARLWFGDLDAFDIWGQGTMVT
VL: EIVLTQSPATLSLSPGERATLSCRASQSVSSYLAWYQQKPGQAPRLLIYDASNRATGIPARFSGSGSGTDFTLTISSLEPEDFAVYYCHQRSSWPPIFTFGPGT
notes: as for B6

T1 sequence (P35225 35-146 limits assumed): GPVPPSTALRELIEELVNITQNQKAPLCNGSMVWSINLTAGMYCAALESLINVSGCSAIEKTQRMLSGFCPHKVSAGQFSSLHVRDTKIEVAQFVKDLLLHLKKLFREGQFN

One assay addresses T1, recombinant human IL-13 (human, UniProt P35225 35-146, limits assumed). Kind of assay: cell-based or functional assay.
On to B1, for which the “EC50 [nM] human IL-13 (IL-13-induced eotaxin release from human lung fibroblasts)” value (“EC50” for short) was determined as 0.33 nM.

For B2, the “EC50” value came to 1.23 nM.

Regarding B3, the “EC50” value was determined as 1.71 nM.

For B4, the “EC50” value was 0.95 nM.

Another assay deals with T1, recombinant human IL-13. The assay can be described thus: SPR, BIAcore 2000; Fab captured via anti-human L-kappa antibody, hrIL-13 injected; 1:1 Langmuir model. On the procedure:
Quantitative Analysis of Binding Affinities: Determination of Anti-Human IL-13 Fab Candidates Surface plasmon resonance measurements quantifying the interaction of anti-IL-13 Fabs with several hrIL-13 are performed using the optical biosensor, BIAcore 2000. Specific binding of IL-13 to a respective IL-13 Fab immobilized on a BIAcore chip can be measured by following accumulation of the ligand on the receptor. The microscopic association ($kon$) and dissociation rates ($koff$) can be obtained directly from the mass accumulation rates on the chip and are expressed in response units (RUs). Anti-IL-13 Fab is immobilized on the chip surface via a secondary anti-human Lκ antibody (Jackson Immunochemicals). This capture antibody was covalently bound using the 'Amine coupling kit' (BIAcore, Cat. No. BR-1000-50) as recommended in the manufacturers' protocols. 250 μl of varying concentrations of hrIL-13 was injected at flow rate of 20 μl/min and the kinetic trace was recorded. The chip surface was regenerated by two acid wash steps using 100 mM HCl and injecting 10 μl with a flow rate of 20 μl/min. This treatment leads to dissociation of the Fab IL-13 complex due to reversible acid denaturation. No significant loss of binding activity was observed when the antibody was reinjected for a subsequent run. The kinetic traces were evaluated with the BIAcore software applying the 1:1 Langmuir association model The summarized affinity data on human IL-13 is shown in Table 1 herein.
With B5, the Kd (commonly the equilibrium constant for the complex coming apart) was determined as 0.1 nM.

Regarding B6, the Kd turned out to be 0.48 nM.

B7: the equilibrium dissociation constant (Kd) amounted to 0.197 nM.

Regarding B8, the Kd was 0.343 nM.
